For this assay, the target named is 重组PSMA蛋白片段 (human PSMA residues 307-750 with β2M and His tag, expressed in E. coli) (human, UniProt Q04609 307-750). Description: indirect ELISA, PSMA protein coated at 100 μg/ml, antibody titrated from 2000 to 0.625 ng/mL; affinity constant from the antibody concentration at half of the plateau OD.
Sequence of 重组PSMA蛋白片段 (human PSMA residues 307-750 with β2M and His tag, expressed in E. coli) (Q04609 307-750): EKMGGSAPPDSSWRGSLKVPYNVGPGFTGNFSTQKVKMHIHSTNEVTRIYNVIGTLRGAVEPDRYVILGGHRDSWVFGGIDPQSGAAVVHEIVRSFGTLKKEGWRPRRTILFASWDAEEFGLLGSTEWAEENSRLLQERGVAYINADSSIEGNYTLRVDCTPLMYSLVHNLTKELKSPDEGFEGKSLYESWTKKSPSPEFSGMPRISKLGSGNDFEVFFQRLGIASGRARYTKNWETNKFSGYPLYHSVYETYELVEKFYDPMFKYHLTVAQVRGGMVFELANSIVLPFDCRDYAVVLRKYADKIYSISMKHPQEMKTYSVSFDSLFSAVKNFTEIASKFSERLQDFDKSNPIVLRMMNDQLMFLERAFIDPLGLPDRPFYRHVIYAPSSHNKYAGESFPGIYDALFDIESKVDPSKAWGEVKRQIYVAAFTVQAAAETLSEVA

B1: 抗PSMA蛋白单克隆抗体(11D1E5E10) (antibody, V domains shown)
VH: QVQLQQSGPELARPGASVKMSCKASGYTFTSYTIHWVKQRPGQGLEWIGYISPSSGYTNYNQNFKDQATLTADISSSTAYMQLSSLTSEDSAVYYCARSGYRYDWYFDVWGAGTTVTVSS
VL: DIQMTQSPSSLSASLGGKVTITCKASQDINKYIAWYQHKPGKGPRLLIHYTSTLQPGIPSRFSGSGSGRDYSFSISNLEPEDIATYYCLQYDNLWTFGGGTKLEIK
notes: also called CGMCC NO.19683; PSMA单克隆抗体
As to B1, the Ka stood at 4.96e+09 M⁻¹.

The record behind these values is CN112480260A (FUZHOU MAIXIN BIOTECHNOLOGY DEV CO LTD, dated 2021).
